Data as given in IntAct's records for PubMed 23954233.

B1: F-box DNA helicase 1 (Homo sapiens), Q8NFZ0 (parent)
chain: MRRFKRKHLTAIDCQHLARSHLAVTQPFGQRWTNRDPNHGLYPKPRTKRGSRGQGSQRCIPEFFLAGKQPCTNDMAKSNSVGQDSCQDSEGDMIFPAESSCALPQEGSAGPGSPGSAPPSRKRSWSSEEESNQATGTSRWDGVSKKAPRHHLSVPCTRPREARQEAEDSTSRLSAESGETDQDAGDVGPDPIPDSYYGLLGTLPCQEALSHICSLPSEVLRHVFAFLPVEDLYWNLSLVCHLWREIISDPLFIPWKKLYHRYLMNEEQAVSKVDGILSNCGIEKESDLCVLNLIRYTATTKCSPSVDPERVLWSLRDHPLLPEAEACVRQHLPDLYAAAGGVNIWALVAAVVLLSSSVNDIQRLLFCLRRPSSTVTMPDVTETLYCIAVLLYAMREKGINISNRIHYNIFYCLYLQENSCTQATKVKEEPSVWPGKKTIQLTHEQQLILNHKMEPLQVVKIMAFAGTGKTSTLVKYAEKWSQSRFLYVTFNKSIAKQAERVFPSNVICKTFHSMAYGHIGRKYQSKKKLNLFKLTPFMVNSVLAEGKGGFIRAKLVCKTLENFFASADEELTIDHVPIWCKNSQGQRVMVEQSEKLNGVLEASRLWDNMRKLGECTEEAHQMTHDGYLKLWQLSKPSLASFDAIFVDEAQDCTPAIMNIVLSQPCGKIFVGDPHQQIYTFRGAVNALFTVPHTHVFYLTQSFRFGVEIAYVGATILDVCKRVRKKTLVGGNHQSGIRGDAKGQVALLSRTNANVFDEAVRVTEGEFPSRIHLIGGIKSFGLDRIIDIWILLQPEEERRKQNLVIKDKFIRRWVHKEGFSGFKRYVTAAEDKELEAKIAVVEKYNIRIPELVQRIEKCHIEDLDFAEYILGTVHKAKGLEFDTVHVLDDFVKVPCARHNLPQLPHFRVESFSEDEWNLLYVAVTRAKKRLIMTKSLENILTLAGEYFLQAELTSNVLKTGVVRCCVGQCNNAIPVDTVLTMKKLPITYSNRKENKGGYLCHSCAEQRIGPLAFLTASPEQVRAMERTVENIVLPRHEALLFLVF

Variants of: B1
Settings: with src_human SRC

effect of a mutation on the interaction | Variant
disrupting interaction | I1030F

Variants of: B1
Settings: with src_human SRC
Remark: another data set of the same source

effect of a mutation on the interaction | Variant
decreasing interaction | G774R
